Source: article PMC10679996

Target: HSC70 (UniProt P11142)
Assay: anti-FLAG co-IP, Western blot
Conditions: reference: wild type; sites T290

binding against the reference: weaker
Substance: PD-L1 (from UniProt Q9NZQ7) T290A
